Numbered stars: 1 amine (or outer) side, 2 acyl side, 3 side chain; on linkers, the order of the positions; unused ones are H or OH. Bridge positions count the residues as written; N and C are the ends. Side chains are listed from the residue outwards. Ends that are not written are not given here. * marks the point of attachment. C20 diacid = O=C(O)CCCCCCCCCCCCCCCCCCC(=O)*; γGlu = O=C(O)[C@H](CCC(=O)[*:2])N[*:1]
T1: human amylin receptor (amylin 3(a) receptor: human calcitonin receptor co-expressed with RAMP-3) (human, UniProt P30988 25-474; O60896 24-148, limits assumed)
T1 sequence (looked up) 1: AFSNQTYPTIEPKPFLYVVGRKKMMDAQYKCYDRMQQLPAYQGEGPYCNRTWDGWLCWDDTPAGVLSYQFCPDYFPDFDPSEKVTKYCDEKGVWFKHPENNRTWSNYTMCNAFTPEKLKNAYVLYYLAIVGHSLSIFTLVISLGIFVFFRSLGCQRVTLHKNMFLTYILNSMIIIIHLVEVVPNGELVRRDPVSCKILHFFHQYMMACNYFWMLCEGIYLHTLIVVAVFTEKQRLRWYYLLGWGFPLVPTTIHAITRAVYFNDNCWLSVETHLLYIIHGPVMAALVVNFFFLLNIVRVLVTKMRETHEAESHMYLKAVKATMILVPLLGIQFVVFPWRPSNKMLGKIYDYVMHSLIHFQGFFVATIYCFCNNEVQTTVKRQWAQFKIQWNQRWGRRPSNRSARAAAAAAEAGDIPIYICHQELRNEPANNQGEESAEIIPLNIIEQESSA
T1 sequence (looked up) 2: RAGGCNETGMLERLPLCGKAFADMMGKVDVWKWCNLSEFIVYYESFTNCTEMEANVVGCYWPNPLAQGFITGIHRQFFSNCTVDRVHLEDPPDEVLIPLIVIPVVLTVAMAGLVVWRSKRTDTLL

T2: human calcitonin receptor (human, UniProt P30988 25-474)
T2 sequence (looked up): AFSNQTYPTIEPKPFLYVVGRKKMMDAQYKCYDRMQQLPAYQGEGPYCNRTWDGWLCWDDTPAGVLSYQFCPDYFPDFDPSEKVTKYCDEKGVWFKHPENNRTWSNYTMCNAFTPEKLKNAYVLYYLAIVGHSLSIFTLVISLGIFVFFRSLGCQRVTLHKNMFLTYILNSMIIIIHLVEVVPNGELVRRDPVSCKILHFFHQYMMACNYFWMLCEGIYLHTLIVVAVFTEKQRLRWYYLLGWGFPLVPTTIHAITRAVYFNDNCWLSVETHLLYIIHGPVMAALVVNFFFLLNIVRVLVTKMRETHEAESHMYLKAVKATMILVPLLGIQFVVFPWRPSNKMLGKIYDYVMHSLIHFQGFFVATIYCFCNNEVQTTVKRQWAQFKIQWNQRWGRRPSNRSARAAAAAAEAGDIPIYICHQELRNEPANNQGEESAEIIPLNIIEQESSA


Columns and labels:
[1] = target: T1, human amylin receptor (amylin 3(a) …); assay: cell-based or functional assay
[2] = target: T2, human calcitonin receptor; assay: cell-based or functional assay

| Binder | hAmylin-R funct. EC50 [1] [nM] | Ratio hCT/hAmylin funct. (hCTR EC50 against hAmylin-R EC50) [2] | hCTR funct. EC50 [2] [nM] |
| --- | --- | --- | --- |
| K([γGlu-C20 diacid])CNTATCATQRLARFLRHSSPNFGAIPSSTPVGSNTY-NH2 (disulfide 2-7; N-terminus assumed; SMILES CC[C@H](C)[C@H](NC(=O)[C@H](C)NC(=O)CNC(=O)[C@H](Cc1ccccc1)NC(=O)[C@H](CC(N)=O)NC(=O)[C@@H]1CCCN1C(=O)[C@H](CO)NC(=O)[C@H](CO)NC(=O)[C@H](Cc1c[nH]cn1)NC(=O)[C@H](CCCNC(=N)N)NC(=O)[C@H](CC(C)C)NC(=O)[C@H](Cc1ccccc1)NC(=O)[C@H](CCCNC(=N)N)NC(=O)[C@H](C)NC(=O)[C@H](CC(C)C)NC(=O)[C@H](CCCNC(=N)N)NC(=O)[C@H](CCC(N)=O)NC(=O)[C@@H](NC(=O)[C@H](C)NC(=O)[C@@H]1CSSC[C@H](NC(=O)[C@@H](N)CCCCNC(=O)CC[C@H](NC(=O)CCCCCCCCCCCCCCCCCCC(=O)O)C(=O)O)C(=O)N[C@@H](CC(N)=O)C(=O)N[C@@H]([C@@H](C)O)C(=O)N[C@@H](C)C(=O)N[C@@H]([C@@H](C)O)C(=O)N1)[C@@H](C)O)C(=O)N1CCC[C@H]1C(=O)N[C@@H](CO)C(=O)N[C@@H](CO)C(=O)N[C@H](C(=O)N1CCC[C@H]1C(=O)N[C@H](C(=O)NCC(=O)N[C@@H](CO)C(=O)N[C@@H](CC(N)=O)C(=O)N[C@H](C(=O)N[C@@H](Cc1ccc(O)cc1)C(N)=O)[C@@H](C)O)C(C)C)[C@@H](C)O, also called compound 63) | 0.037 | 139 | 5.13 |
| K([γGlu-C20 diacid])CNTATCATQRLANFLRHSSPNFGAIPSSTNVGHNTY-NH2 (disulfide 2-7; N-terminus assumed; SMILES CC[C@H](C)[C@H](NC(=O)[C@H](C)NC(=O)CNC(=O)[C@H](Cc1ccccc1)NC(=O)[C@H](CC(N)=O)NC(=O)[C@@H]1CCCN1C(=O)[C@H](CO)NC(=O)[C@H](CO)NC(=O)[C@H](Cc1c[nH]cn1)NC(=O)[C@H](CCCNC(=N)N)NC(=O)[C@H](CC(C)C)NC(=O)[C@H](Cc1ccccc1)NC(=O)[C@H](CC(N)=O)NC(=O)[C@H](C)NC(=O)[C@H](CC(C)C)NC(=O)[C@H](CCCNC(=N)N)NC(=O)[C@H](CCC(N)=O)NC(=O)[C@@H](NC(=O)[C@H](C)NC(=O)[C@@H]1CSSC[C@H](NC(=O)[C@@H](N)CCCCNC(=O)CC[C@H](NC(=O)CCCCCCCCCCCCCCCCCCC(=O)O)C(=O)O)C(=O)N[C@@H](CC(N)=O)C(=O)N[C@@H]([C@@H](C)O)C(=O)N[C@@H](C)C(=O)N[C@@H]([C@@H](C)O)C(=O)N1)[C@@H](C)O)C(=O)N1CCC[C@H]1C(=O)N[C@@H](CO)C(=O)N[C@@H](CO)C(=O)N[C@H](C(=O)N[C@@H](CC(N)=O)C(=O)N[C@H](C(=O)NCC(=O)N[C@@H](Cc1c[nH]cn1)C(=O)N[C@@H](CC(N)=O)C(=O)N[C@H](C(=O)N[C@@H](Cc1ccc(O)cc1)C(N)=O)[C@@H](C)O)C(C)C)[C@@H](C)O, also called compound 77) [N^ε1-[(4S)-4-carboxy-4-(19-carboxynonadecanoylamino)butanoyl]-[Arg17,Pro21,Pro27,His34]-h-amylin] | 0.145 | 37.3 | 5.4 |
| K([γGlu-C20 diacid])CNTATCATQRLANFLRHSSPNFGAIPSSTNVGSHTY-NH2 (disulfide 2-7; N-terminus assumed; SMILES CC[C@H](C)[C@H](NC(=O)[C@H](C)NC(=O)CNC(=O)[C@H](Cc1ccccc1)NC(=O)[C@H](CC(N)=O)NC(=O)[C@@H]1CCCN1C(=O)[C@H](CO)NC(=O)[C@H](CO)NC(=O)[C@H](Cc1c[nH]cn1)NC(=O)[C@H](CCCNC(=N)N)NC(=O)[C@H](CC(C)C)NC(=O)[C@H](Cc1ccccc1)NC(=O)[C@H](CC(N)=O)NC(=O)[C@H](C)NC(=O)[C@H](CC(C)C)NC(=O)[C@H](CCCNC(=N)N)NC(=O)[C@H](CCC(N)=O)NC(=O)[C@@H](NC(=O)[C@H](C)NC(=O)[C@@H]1CSSC[C@H](NC(=O)[C@@H](N)CCCCNC(=O)CC[C@H](NC(=O)CCCCCCCCCCCCCCCCCCC(=O)O)C(=O)O)C(=O)N[C@@H](CC(N)=O)C(=O)N[C@@H]([C@@H](C)O)C(=O)N[C@@H](C)C(=O)N[C@@H]([C@@H](C)O)C(=O)N1)[C@@H](C)O)C(=O)N1CCC[C@H]1C(=O)N[C@@H](CO)C(=O)N[C@@H](CO)C(=O)N[C@H](C(=O)N[C@@H](CC(N)=O)C(=O)N[C@H](C(=O)NCC(=O)N[C@@H](CO)C(=O)N[C@@H](Cc1c[nH]cn1)C(=O)N[C@H](C(=O)N[C@@H](Cc1ccc(O)cc1)C(N)=O)[C@@H](C)O)C(C)C)[C@@H](C)O, also called compound 60) [N^ε1-[(4S)-4-carboxy-4-(19-carboxynonadecanoylamino)butanoyl]-[Arg17,Pro21,Pro27,His35]-h-amylin] | 0.351 | 15.3 | 5.36 |

The remaining lines, values ahead:

| hAmylin-R funct. EC50 [1] [nM] | Ratio hCT/hAmylin funct. (hCTR EC50 against hAmylin-R EC50) [2] | hCTR funct. EC50 [2] [nM] | Binder |
| --- | --- | --- | --- |
| 0.027 | 20.1 | 0.542 | K([γGlu-C20 diacid])CNTATCATQRLAHFLRHSSPNFGAIPSSTNVGSHTY-NH2 (disulfide 2-7; N-terminus assumed; SMILES CC[C@H](C)[C@H](NC(=O)[C@H](C)NC(=O)CNC(=O)[C@H](Cc1ccccc1)NC(=O)[C@H](CC(N)=O)NC(=O)[C@@H]1CCCN1C(=O)[C@H](CO)NC(=O)[C@H](CO)NC(=O)[C@H](Cc1c[nH]cn1)NC(=O)[C@H](CCCNC(=N)N)NC(=O)[C@H](CC(C)C)NC(=O)[C@H](Cc1ccccc1)NC(=O)[C@H](Cc1c[nH]cn1)NC(=O)[C@H](C)NC(=O)[C@H](CC(C)C)NC(=O)[C@H](CCCNC(=N)N)NC(=O)[C@H](CCC(N)=O)NC(=O)[C@@H](NC(=O)[C@H](C)NC(=O)[C@@H]1CSSC[C@H](NC(=O)[C@@H](N)CCCCNC(=O)CC[C@H](NC(=O)CCCCCCCCCCCCCCCCCCC(=O)O)C(=O)O)C(=O)N[C@@H](CC(N)=O)C(=O)N[C@@H]([C@@H](C)O)C(=O)N[C@@H](C)C(=O)N[C@@H]([C@@H](C)O)C(=O)N1)[C@@H](C)O)C(=O)N1CCC[C@H]1C(=O)N[C@@H](CO)C(=O)N[C@@H](CO)C(=O)N[C@H](C(=O)N[C@@H](CC(N)=O)C(=O)N[C@H](C(=O)NCC(=O)N[C@@H](CO)C(=O)N[C@@H](Cc1c[nH]cn1)C(=O)N[C@H](C(=O)N[C@@H](Cc1ccc(O)cc1)C(N)=O)[C@@H](C)O)C(C)C)[C@@H](C)O, also called compound 66) |
| 0.372 | 14 | 5.22 | K([γGlu-C20 diacid])CNTATCATQRLAEFLRHSSPNFGAIPSSTNVGSRTY-NH2 (disulfide 2-7; N-terminus assumed; SMILES CC[C@H](C)[C@H](NC(=O)[C@H](C)NC(=O)CNC(=O)[C@H](Cc1ccccc1)NC(=O)[C@H](CC(N)=O)NC(=O)[C@@H]1CCCN1C(=O)[C@H](CO)NC(=O)[C@H](CO)NC(=O)[C@H](Cc1c[nH]cn1)NC(=O)[C@H](CCCNC(=N)N)NC(=O)[C@H](CC(C)C)NC(=O)[C@H](Cc1ccccc1)NC(=O)[C@H](CCC(=O)O)NC(=O)[C@H](C)NC(=O)[C@H](CC(C)C)NC(=O)[C@H](CCCNC(=N)N)NC(=O)[C@H](CCC(N)=O)NC(=O)[C@@H](NC(=O)[C@H](C)NC(=O)[C@@H]1CSSC[C@H](NC(=O)[C@@H](N)CCCCNC(=O)CC[C@H](NC(=O)CCCCCCCCCCCCCCCCCCC(=O)O)C(=O)O)C(=O)N[C@@H](CC(N)=O)C(=O)N[C@@H]([C@@H](C)O)C(=O)N[C@@H](C)C(=O)N[C@@H]([C@@H](C)O)C(=O)N1)[C@@H](C)O)C(=O)N1CCC[C@H]1C(=O)N[C@@H](CO)C(=O)N[C@@H](CO)C(=O)N[C@H](C(=O)N[C@@H](CC(N)=O)C(=O)N[C@H](C(=O)NCC(=O)N[C@@H](CO)C(=O)N[C@@H](CCCNC(=N)N)C(=O)N[C@H](C(=O)N[C@@H](Cc1ccc(O)cc1)C(N)=O)[C@@H](C)O)C(C)C)[C@@H](C)O, also called compound 51) |
| 0.242 | 38.6 | 9.33 | K([γGlu-C20 diacid])CNTATCATQRLARFLRHSSPNFGAIPSSTNVGPNTY-NH2 (disulfide 2-7; N-terminus assumed; SMILES CC[C@H](C)[C@H](NC(=O)[C@H](C)NC(=O)CNC(=O)[C@H](Cc1ccccc1)NC(=O)[C@H](CC(N)=O)NC(=O)[C@@H]1CCCN1C(=O)[C@H](CO)NC(=O)[C@H](CO)NC(=O)[C@H](Cc1c[nH]cn1)NC(=O)[C@H](CCCNC(=N)N)NC(=O)[C@H](CC(C)C)NC(=O)[C@H](Cc1ccccc1)NC(=O)[C@H](CCCNC(=N)N)NC(=O)[C@H](C)NC(=O)[C@H](CC(C)C)NC(=O)[C@H](CCCNC(=N)N)NC(=O)[C@H](CCC(N)=O)NC(=O)[C@@H](NC(=O)[C@H](C)NC(=O)[C@@H]1CSSC[C@H](NC(=O)[C@@H](N)CCCCNC(=O)CC[C@H](NC(=O)CCCCCCCCCCCCCCCCCCC(=O)O)C(=O)O)C(=O)N[C@@H](CC(N)=O)C(=O)N[C@@H]([C@@H](C)O)C(=O)N[C@@H](C)C(=O)N[C@@H]([C@@H](C)O)C(=O)N1)[C@@H](C)O)C(=O)N1CCC[C@H]1C(=O)N[C@@H](CO)C(=O)N[C@@H](CO)C(=O)N[C@H](C(=O)N[C@@H](CC(N)=O)C(=O)N[C@H](C(=O)NCC(=O)N1CCC[C@H]1C(=O)N[C@@H](CC(N)=O)C(=O)N[C@H](C(=O)N[C@@H](Cc1ccc(O)cc1)C(N)=O)[C@@H](C)O)C(C)C)[C@@H](C)O, also called compound 65) |
